Experimental findings from patent publication US20220380463A1 (Adimab, published 2022) are described below.

Numbering of substitutions follows the chain as printed.

T1: Cynomolgus CD3εδ Fc heterodimer (Cy CD3ε Fc / CD3δ Fc-HIS) (cynomolgus, UniProt Q95LI8 22-100)
T1 chain 1: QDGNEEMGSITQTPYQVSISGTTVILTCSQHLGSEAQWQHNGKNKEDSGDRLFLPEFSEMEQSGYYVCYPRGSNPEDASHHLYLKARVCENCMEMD
T1 chain 2: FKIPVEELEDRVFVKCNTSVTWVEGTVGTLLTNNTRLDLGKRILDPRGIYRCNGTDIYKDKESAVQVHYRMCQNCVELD

B1: SAD10319_P01_E02 (ADI-57304) (antibody, V domains shown)
VH: QVQLVQSGAEVKKPGASVKVSCKASGYTFTSDFMHWVRQAPGQRLEWMGWINPATGATKYSQKFQGRVTITRDTSASTAYMELSSLRSEDTAVYYCARDAYGHYFYDHWGQGTLVTVSS
VL: DIVMTQSPDSLAVSLGERATINCKSSQSLLNARTGKNYLAWYQQKPGQPPKLLIYWASTRESGVPDRFSGSGSGTDFTLTISSLQAEDVAVYYCKQSYSRRTFGGGTKVEIK
notes: IgG; also called Ab240
B2: SAD10319_P02_C06 (ADI-57322) (antibody, V domains shown)
VH: B1 VH with D32Y, F33A, A54V, K59V, H108V
VL: B1 VL
notes: IgG; also called Ab10
B3: SAD10320_P01_E02 (ADI-57349) (antibody, V domains shown)
VH: QVQLVQSGAEVKKPGASVKVSCKASGFNIKDYYMHWVRQAPGQRLAWMGWIDLENANTIYDAKFQGRVTITRDTSASTAYMELSSLRSEDTAVYYCARDAYGRHFYDVWGQGTLVTVSS
VL: B1 VL
notes: IgG; also called Ab55
B4: SAD10319_P02_E04 (ADI-57311) (antibody, V domains shown)
VH: QVQLVQSGAEVKKPGASVKVSCKASGYTFESYYMHWVRQAPGQRLERMGSIVAGTGATKYSQKFQGRVTITRDTSASTAYMELSSLRSEDTAVYYCARDHYGRYFYDVWGQGTPVTVSS
VL: B1 VL
notes: IgG; also called Ab252
B5: SAD10319_P02_F04 (ADI-57312) (antibody, V domains shown)
VH: B1 VH with T30D, D32Y, F33T, W50Y, A54D, K59Y, G102H, H108V
VL: B1 VL
notes: IgG; also called Ab253
B6: SAD10319_P02_H06 (ADI-48633) (antibody, V domains shown)
VH: B1 VH with S31A, D32Y, F33V, W50S, N52D, P53A, A54G, A57N
VL: B1 VL
notes: IgG; also called Ab16
B7: SAD10319_P02_E06 (ADI-57323) (antibody, V domains shown)
VH: B1 VH with T30A, S31D, D32Y, F33A, E46A, A54H, K59F, H103R
VL: B1 VL
notes: IgG; also called Ab12
B8: SAD10319_P02_F06 (ADI-57324) (antibody, V domains shown)
VH: B1 VH with T30L, D32Y, F33A, W47R, A54S, K59D, H108V
VL: B1 VL
notes: IgG; also called Ab13
B9: SAD10319_P04_G10 (ADI-57334) (antibody, V domains shown)
VH: B1 VH with S31D, D32Y, F33Y, K59A, Y104H, H108V
VL: B1 VL
notes: IgG; also called Ab32
B10: SAD10319_P04_B10 (ADI-57332) (antibody, V domains shown)
VH: B1 VH with D32T, W50F, N52D, P53A, A54G
VL: B1 VL
notes: IgG; also called Ab30
B11: SAD10319_P02_A06 (ADI-57320) (antibody, V domains shown)
VH: B4 VH with E30D, S31A, Y33A, R47W, S50W, V52D, R103H, P114L
VL: B1 VL
notes: IgG; also called Ab8
B12: SAD10319_P03_E08 (ADI-48637) (antibody, V domains shown)
VH: QVQLVQSGAEVKKPGASVKVSCKASGYTFNDYAMHWVRQAPGQRLEWMGYINGTGATVYSQKFQGRVTITRDTSASTAYMELSSLRSEDTAVYYCARDAYHHYFYDVWSQGTLVTVSS
VL: B1 VL
notes: IgG; also called Ab21
B13: SAD10319_P04_E12 (ADI-48642) (antibody, V domains shown)
VH: B4 VH with E30T, Y33P, R47W, S50W, V52D, A57L, K59T, G102H, V108M, P114L
VL: B1 VL
notes: IgG; also called Ab43
B14: SAD10319_P03_B09 (ADI-48639) (antibody, V domains shown)
VH: B1 VH with S31E, D32Y, F33D, N52D, P53A, A54G, K59V, H103R
VL: B1 VL
notes: IgG; also called Ab24
B15: SAD10319_P03_E09 (ADI-48640) (antibody, V domains shown)
VH: B1 VH with T30L, D32Y, F33D, N52D, P53A, A54G, K59T, G102H, H108V
VL: B1 VL
notes: IgG; also called Ab26
B16: SAD10319_P03_G08 (ADI-48638) (antibody, V domains shown)
VH: B1 VH with T30S, D32Y, F33D, N52D, P53A, A54G, A57F
VL: B1 VL
notes: IgG; also called Ab22
B17: SAD10319_P03_A08 (ADI-48636) (antibody, V domains shown)
VH: B4 VH with E30T, S31D, Y33D, R47W, S50W, V52D, A57L, R103H, P114L
VL: B1 VL
notes: IgG; also called Ab230
B18: SAD10319_P04_G11 (ADI-48641) (antibody, V domains shown)
VH: QVQLVQSGAEVKKPGASVKVYCKASGYTFTTYEMHWVRQAPGQRLEWMGSINAGDANTKYSQKFQGRVTITRDTSASTAYMELSSLRSEDTAVYYCARDAYHHYFYDVWGQGTLVTVSS
VL: B1 VL
notes: IgG; also called Ab39

The target in one assay is T1, Cynomolgus CD3εδ Fc heterodimer (Cy …). As to the kind of experiment: BLI (Octet), IgG on AHC sensor, pH 6.0.
Regarding B1, the koff amounted to 0.0248 s⁻¹.
Same read-out and setting: under B2 stands 0.023 s⁻¹; under B3, 0.00585 s⁻¹.
On the same count and under the same terms, then B4, with 0.0215 s⁻¹; and B5, with 0.0317 s⁻¹; and B6, with 0.0188 s⁻¹.
Still for that read-out and setting: then B7, with 0.00251 s⁻¹.
For the molecule B8, the koff turned out to be 0.0122 s⁻¹.
The same measure, in the same setting: under B9 stands 0.015 s⁻¹; under B10, 0.0127 s⁻¹; under B11, 0.0327 s⁻¹.

For a further assay the target is unchanged. The assay can be described thus: BLI (Octet), IgG on AHC sensor, pH 7.4. On the technique in general: BLI is a label-free optical method that tracks binding on a fibre tip over time.
With B1, the Kd worked out at 145 nM, the koff was found to be 0.0355 s⁻¹ and the kon is 245000 M⁻¹ s⁻¹.
For B2, in that order: 51.3 nM, 0.0255 s⁻¹ and 496000 M⁻¹ s⁻¹.
For B3, in that order: 68.6 nM, 0.0208 s⁻¹ and 304000 M⁻¹ s⁻¹.
For B4, in that order: 64.1 nM, 0.0208 s⁻¹ and 324000 M⁻¹ s⁻¹.
Molecule B5 had a Kd of 117 nM, a koff of 0.0301 s⁻¹ and a kon of 257000 M⁻¹ s⁻¹.
Turning to B6, the dissociation constant Kd is 78 nM, the koff was 0.0171 s⁻¹ and the kon was 220000 M⁻¹ s⁻¹.
The matching figures for B7: 60.6 nM, 0.0267 s⁻¹ and 440000 M⁻¹ s⁻¹.
For B8, in that order: 134 nM, 0.0331 s⁻¹ and 247000 M⁻¹ s⁻¹.
The matching figures for B9: 62.6 nM, 0.0182 s⁻¹ and 291000 M⁻¹ s⁻¹.
B10 returned a Kd of 58.8 nM, a koff of 0.0199 s⁻¹ and a kon of 338000 M⁻¹ s⁻¹.
B11 displayed a Kd of 30.2 nM, an off-rate (koff) of 0.0115 s⁻¹ and an on-rate constant (kon) of 383000 M⁻¹ s⁻¹.

The target of another assay is T2, human CD3 on CD3+ Jurkat cells (human, UniProt P07766 23-207).
T2 construct: whole, on cells; Native CD3 complex on cells; the other CD3 chains are not specified for this assay; also called Human CD3+ Jurkat
T2 sequence (P07766 23-207): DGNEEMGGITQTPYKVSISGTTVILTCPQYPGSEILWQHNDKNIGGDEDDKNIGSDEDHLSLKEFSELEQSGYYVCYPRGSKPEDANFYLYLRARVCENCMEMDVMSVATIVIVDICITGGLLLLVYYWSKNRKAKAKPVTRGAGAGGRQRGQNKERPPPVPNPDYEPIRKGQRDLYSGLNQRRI
As to the kind of experiment: flow cytometry, 100 nM IgG on CD3+ Jurkat cells, pH 6.0. Summed up: (§1)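 Jurkat cells incubated 20 min on ice with 100 nM yeast-produced IgG in PBS + 0.1% BSA at pH 6.0 or pH 7.4, with all washes and staining at the same pH. Bound antibody detected with anti-human IgG-RPE, dead cells excluded by propidium iodide; MFI measured by flow cytometry.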
As to B12, the “MFI pH 6.0” value is 244 MFI.
As for B13, the “MFI pH 6.0” value came to 332 MFI.
In the case of B14, the “MFI pH 6.0” value turned out to be 897 MFI.
Take B15: the “MFI pH 6.0” value is 772 MFI.
For B16, the “MFI pH 6.0” value stood at 2000 MFI.
On the same count and under the same terms, under B17 stands 897 MFI; under B18, 59 MFI.

A further assay deals with T2, human CD3 on CD3+ Jurkat cells. The assay can be described thus: flow cytometry, 100 nM IgG on CD3+ Jurkat cells, pH 7.4. Summed up:
as §1
Turning to B12, the “MFI pH 7.4” value amounted to 73 MFI.
In the case of B13, the “MFI pH 7.4” value is 55 MFI.
On the same count and under the same terms, under B14 stands 55 MFI; under B15, 56 MFI; under B16, 84 MFI.
On the same count and under the same terms, then B17, with 35 MFI.
The same measure, in the same setting: under B18 stands 52 MFI.

A further assay shares this target. As to the kind of experiment: flow cytometry on CD3+ Jurkat cells, ratio of MFI at pH 6.0 to pH 7.4. In short, it runs like this: as §1
In the case of B12, the “MFI pH 6.0/MFI pH 7.4” value came to 3.3.
Still for that read-out and setting: then B13, with 6.1; and B14, with 16.5.
As to B15, the “MFI pH 6.0/MFI pH 7.4” value came to 13.8.
B16: the “MFI pH 6.0/MFI pH 7.4” value worked out at 23.8.
On the same count and under the same terms, under B17 stands 25.9; under B18, 1.1.

The koff is the rate constant with which the complex falls apart. Read a low koff as a long-lived complex. What is called Kd is the concentration at which binding is half-saturated. High values mean weaker binding, low ones tighter binding. A word on the kon: it is the rate constant with which the complex forms. A lower kon goes with slower complex formation.
